Legend:
[1] = test system: DSBs in human or rodent cell lines (U2OS, HEK-293, MCF-7, HCT116, WI83, IMR90, MEF); assay: TUNEL assay for DSB induction in vivo; type: cell-based
Procedure: […] was assayed with terminal deoxynucleotidyl transferase (TdT) dUTP-FITC, in a TUNEL reaction (In Situ Cell Death Detection Kit, Roche Diagnostic, Mannheim Germany) which marks DSBs in vivo. The assay was done after fixation of the cells in 4% paraformaldehyde in PBS, 0.1% Triton. After the TUNEL reaction the cells are counter-stained with propidium J. The use of derivatives impaired in the nuclease activity like the construct SC34 as a negative control, allows to estimate background activities. […] This aspect makes the system described in the invention by far more efficient as compared to endonucleases induced from transcriptional units or compared to any of the other type of protein transfection like electroporation, or precipitations with calcium phosphate or libid-derivatives i.e. lipofectin.

U2OS cells = assay: Histone H2AX Ser139 phosphorylation, single cell fluorescence microscopy; type: cell-based, human; conditions: 100 nM, 60 minutes
Procedure: U2OS cells were treated with [sequence] (100 nM, central column) for 60 minutes, in addition treatment was done with Wortmanin (50 μM, WM, right column), or with no agent as a control (left column). After treatment cells were stained with specific antibodies to H2AX-Ser-139 phosphorylated (red) or for Histone 2B (served as a control, green) and analysed on a single cell level by fluorescence microscopy.
As another example for a phosphorylation of a substrate of ATM in response to the object of the invention, histone H2AX Ser^139 phosphorylation was analysed. […] U2OS cells were treated for 60 minutes with [sequence], fixed and analysed for histone H2AX Ser^139 phosphorylation. Cells were analysed with a specific antiserum to phospho-Ser 139 on histone H2AX and analysed in the microscope on a single cell basis. As a control histone 2B was analysed.

[2] = test system: AT-5 cells (mutated for ATM); assay: Colony forming assay; type: cell-based
Procedure: (§1) FIG. 8. Induction of Cell Cycle Block and Clonogenic Activity by […] of Cells Mutated for ATM (AT-5) in Comparison to Non Mutated Cells (MRC-5). • A) Distribution of DNA content distribution during the cell cycle detected by FACS analysis of AT-5 cells after 36 hours of […] treatment (25 nM, 100 nM), or with adriamycin (0.02 μg/ml; ADRIAMYCIN), or with SC34 (100 nM), and as control from non treated cells. The histograms represent DNA content relative to the cell-numbers; the panel on the right indicates the percentage of the corresponding distributions of the various cell cycle phases as calculated with the MODFIT™ program-package. • B) Colony forming assay with cell lines mutated for ATM and induced for DNA damage by […].
(§2) The cell cycle response to DSB's induced by […] treatment were analysed in p53 positive or negative cells. […] Incubation for 36 hours of the cell lines mutated for ATM (AT-5) with […] results in a transient retardation of the cell cycle, as was determined by a DNA content FACS analysis. […] A single addition of […] for 60 minutes to the AT-5 cells was sufficient to induce cell cycle stop after 24 hours (FIG. 8A) and finally leads to cell death, obtained from not correctly ligated DNA, and consequently, the clonogenic activity after a single treatment with […] for 60 minutes was below 0.02% for AT-5 cells. […] In addition, the cells were incubated with adriamycin as a control.

[3] = test system: MRC-5 cells (ATM positive control); assay: Colony forming assay; type: cell-based; conditions: 60 minutes treatment, 25 nM or 100 nM
Procedure: as §1, §2

V3 (DNA-PKcs−/−) cells = assay: Clonogenic assay of CHO cells mutated in NHEJ; type: cell-based, rodent; conditions: 100 nM, 24 hours, grown 7-10 days (FIG. 9 black bar)
Procedure: Clonogenic assay of CHO cells that were mutated for proteins involved in the NHEJ repair-pathway treated with [sequence]. The cell lines used are AA8 (parental line), V3 (DNA-PCCS^(−/−)), xrss5 (KU80^(−/−)) and XR-1 (XRCC4^(−/−)), HIS P1.13-11 (KU70^(−/−)) and the corresponding parental cell line CHO-K1. Various dilutions of the CHO cells containing the NHEJ mutations as indicated were treated for 24 hours with [sequence] (25 nM, grey bars; 100 nM, black bars) or not treated (white bars); the cells were washed and then grown for 7-10 days, stained with GIEMSA and colonies were counted.
Moreover these NHEJ mutant cells were tested with [sequence] in clonogenic, colony-outgrowth assays that were assayed after a single addition of [sequence] for 12 hours at a concentration of 10 nM (grey bars) or at a concentration of 75 nM (black bars) or without protein treatment (not treated, white bars). Seven to ten days after addition, cell growth was analysed by staining with GIEMSA-blue and quantification of diverse cell-concentrations. […] The multiwell-microtiter-plates (for an example see FIG. 13A) were scanned using the VersaDOC® (BioRad) imaging system and growth was automatically quantified with the software package Quantify One® for the analysis of the microtiter-plates (microtiter-plates scanning software).

[4] = test system: NHEJ mutated cell lines (V3, xrss5, XR-1, HIS P1.13-11); assay: Colony formation assay of NHEJ mutated cell lines; type: cell-based, rodent
Procedure: Clonogenic assay of CHO cells that were mutated for proteins involved in the NHEJ repair-pathway treated with […]. The cell lines used are AA8 (parental line), V3 (DNA-PCCS^(−/−)), xrss5 (KU80^(−/−)) and XR-1 (XRCC4^(−/−)), HIS P1.13-11 (KU70^(−/−)) and the corresponding parental cell line CHO-K1. Various dilutions of the CHO cells containing the NHEJ mutations as indicated were treated for 24 hours with […] (25 nM, grey bars; 100 nM, black bars) or not treated (white bars); the cells were washed and then grown for 7-10 days, stained with GIEMSA and colonies were counted.
These cell lines were analysed in the nuclease activity assays with […] in vivo and compared to the parental cell lines as indicated. […] Seven to ten days after addition, cell growth was analysed by staining with GIEMSA-blue and quantification of diverse cell-concentrations. […] In analogy, cell growth was quantified after a single treatment with […] for 12 hours (10 nM, grey bars; 75 nM, black bars; not treated, white bars). […] The multiwell-microtiter-plates (for an example see FIG. 13A) were scanned using the VersaDOC® (BioRad) imaging system and growth was automatically quantified with the software package Quantify One® for the analysis of the microtiter-plates (microtiter-plates scanning software).

[5] = test system: neuroblastoma cells G1-LIN; assay: Apoptosis by FACS analysis of DNA content (below 2N); type: cell-based; conditions: 30 hours
Procedure: FACS analysis of the DNA content stained with propidium J^− of the neuroblastoma cells G1-LIN after […] treatment (10 nM, panel C; 100 nM panel B). The treatment of the samples was done for 30 hours. As a control samples treated with SC34 were used (100 nM, panel D) or not treated (panel A). At the bottom of each panel the representative percentage of the cell cycle phase distributions obtained are indicated (G1/S/G2-M). (A) indicates apoptotic cells.

[6] = test system: AT-5 cells (ATM negative); conditions: SCPVUTAT 100 nM or HU 1 mM
Procedure: AT-5 cells, negative for ATM were treated with [sequence]
P53 phosphorylation on Ser15 in response to [sequence] treatment was assayed in ATM positive or negative cell lines (MRC-5 and AT-5 respectively). For comparison parallel experiments were done with hydroxyurea (HU). […] For this immunoblotting experiments were done with extracts after treatment, by using specific antibodies to a phosphorylated Ser15 in p53 for specific detection.

B1: SCPVUTAT: single chain PvuII endonuclease (aa 1-157, GSGG linker, aa 2-157) fused to HIV Tat peptide and six histidine tag; SEQ ID NO:2 (protein, listed as Proteus vulgaris)
chain: MSHPDLNKLLELWPHIQEYQDLALKHGINDIFQDNGGKLLQVLLITGLTVLPGREGNDAVDNAGQEYELKSINIDLTKGFSTHHHMNPVIIAKYRQVPWIFAIYRGIAIEAIYRLEPKDLEFYYDKWERKWYSDGHKDINNPKIPVKYVMEHGTKIYGSGGSHPDLNKLLELWPHIQEYQDLALKHGINDIFQDNGGKLLQVLLITGLTVLPGREGNDAVDNAGQEYELKSINIDLTKGFSTHHHMNPVIIAKYRQVPWIFAIYRGIAIEAIYRLEPKDLEFYYDKWERKWYSDGHKDINNPKIPVKYVMEHGTKIYGSYGRKKRRQRRRGGSHHHHHH
B1 was tested, and the TUNEL positive cells ([1]; 10 minutes after treatment, all cell types tested) was 90-100%, the TUNEL activity ([1]; few minutes of treatment, concentration in culture supernatant as low as 10 nM) was “significant TUNEL activity in most of the cells” and the “histone H2AX Ser139 phosphorylation” value (U2OS cells) was “rapidly induces histone H2AX Ser^139 phosphorylation”. The “colonies relative to non treated cells (100%)” value ([2]; 100 nM, 60 minutes, grown 7-10 days (FIG. 8B black bar)) was about 0%, the clonogenic activity ([2]; single treatment for 60 minutes) was “below 0.02%” and the “sensitivity in colony forming assay compared to AT-5” value [3] was “less sensitive”. The “colonies relative to non treated cells (100%)” value (V3 (DNA-PKcs−/−) cells) was “below 1%”, the “colony formation, cells with mutants in the DNA-PK incl. catalytic subunit” value ([4]; single addition of SCPVUTAT) was “strong reduction in the colony formation assay” and the colony formation activity ([4]; single treatment, all NHEJ mutated cell lines analysed) was “strongly reduce colony formation activity”. For the same molecule, the apoptotic cells ([5]; 10 nM) was 18%, the apoptotic cells ([5]; 100 nM) was “more than 29%” and the p53-Ser15 phosphorylation [6] was “specific phosphorylation of p53-Ser^15 is obtained”.

Source: patent US20150018409A1, “CHIMERIC POLYPEPTIDES AND THEIR USE” (ADRIACELL S.P.A., priority 2003, published 2015)
